The nature of this data set: label from the status in PepcDB records.
Turning to “MLTAQSEYVKKLRPLLPPEAFQADPKKLVILGLNLGIYVAGLTIARHLHQWPGQWLWLFLPMALLMGNSVTVFLFGSHDLMHGSVLKKRSKISYLISLLGLSLWWMPPSQWRSLHNQVHHNNTNSLRDPDRNYLHEQPKTWGKWIHHLFAPSGEVNTLWLIFGMGTAWGVHNFRNLISVLFFTGGNADFVPAAFTVKAQDRQRIWLELAAIGAVHLSILFYLQFQLIPIILGYFLPIFLGHAMGMFYIYTNHLACPMTDINDPLVNSVSLRMPKLFDCLHFNFSYHTEHHLFPDVNSDYYPLVQDLLQTHYPGQMNLLTAKEAWKMLLETPRHYQGETTLVGYNGGETIACPLPKNVPDLTETKVTASV”, the protein production entry is “failed”.
Turning to “MEVSKIRIHDLPEEERPRERLIKNGPESLSNAELLGIVLRTGSREENVISLCSRILMEYNIKQLSLANVSKLMQVNGIGKAKAAQIAAVFELARRLETFVEEPKRKISSPKDVYTLMYPKMREQKKEKFITLYLDTKNQILKEEVVSIGSLNASIVHPREVFKSALMESSASVIMVHNHPSGDPSPSREDIMVTEKLVEGGKLLGIDILDHIIIGDGRYVSLKDEGFVK”, the protein production entry is reported as “not failed”.
The entry for “MIKGEQKRYSEMTKEELQQEIAMLTEKARKAEQMGMVNEYAVYERKIAMAKAYMLNPADFHPGEIYEIEGAPGEYFKVRYLKGVFAWGWRLKGNGEEEALPISLLRKPNLPQS” is “not failed”; for “MSRRYWQLDVFAERPLTGNGLAVFDDASALDDAAMQAWTRELRQFESIFLLPGDDPRAFRARIFTLEEELPFAGHPLLGAAALLHHLRGGDNEQHWTLHLASKSVALRSVRAGSGFYAEMDQGRAEFGATPDAGTCRWFAEAFSLSANDLSGHPPRVVSTGLPYLLLPVTAEALGRARQVNDLQEALDKLGAAFVYLLDVDGREGRTWDNLGLVEDVATGSAAGPVAAYLVEYGLAARGEPFVLHQGRFLERPSRLDVQVATDGSVRVGGHVQLLARAELLTSA” it is “not failed”.
The entry for “MFIYGSDRLGGKMDINGFIEELDSLYTERRINDVEPFFNESIEQAKKENDLAAQFTILNEMMGFFRDTSQFEKSIKACNDCIELMKKMGIEGTVDYATSLQNVANAYRAAGKLAESLEVYKEVFSIYNENIPSDDYRMASLNNNIALLYQEMNDFPMAVQHLKKALSIIEKIEGMDIEVATTYTNLAASLIEINQASQAEDYLKKALEIFDRDEVKNFHYSGALCAMASVKCSLNQYEEAAKLYEKALPEIEANMGRGSAYNITKENLAKVFDKIKEEKKELTGIELAKSFYEEYGKDMIHNNFSEYEDKIAVGFVGEGSERFGFDDVYSRDHDFGPGFCMWITEDVYEKIGEKLQDEYNKLPKSYKGITRVDTIMAEGRVGVCVVEDFYKKYTGSGDGNLTLEQWINLEDYKIATVTNGEVFRDDLGYFSKIRRKFENQPFQARLVKLARQLGAMAQTGQSNYERAMARKDYVTAQICISDFMKETMKCVYILNNKFAPYYKWLFKGVSRLDGTEKIVSLLEKLSQLPAQKNAWDGYLYDNTKFNEKDEKAIIMEEIAKIIIDKLLELKLIKNRNSNFLNDYVRPIMDLAEGKVEMFDREKTIDKIVKLEFEAFDKVQNVGGRASCQNNWPFFYVMRKSQYMTWTDEMLECICNLWEENKAKGWNMITEKYGRMMEHTSPEEYKKIKDNFPEKSERTIAIVNQIAQIQVDWMKDFAKSYPKLASNARDITSDADQIDNTSYETYLKGELLTYSEELLKLYAQFIVNLAREGKNLAYMTIENTAHLQGYATLEAAESSIR” is “failed”.
The entry for “MKKILVHGVKEKTPLGFCDVPRKNLLDFLRDMKSISVPNEPRYKPLRKIHQAASDGDTERLQRMISLGKHSVHDRDFKERTALHFACACGQVEVVSILLRNNCDIDAADMNFITPLMKAVQNWTYECVCILLKHGADPNRKDKNGNTSLHYAVSEDNQTLAKCLLKYSANMEQKNKDGFTPLLLALKENKIEMAKFLVKMGANIHVFDDMRRNTLLYAIRWDSKDMVNLLLDEGIDFFFRDVFGWTALRYAIEGTSKGSREILMNYDEMLRRKNKDGIPEYKFFEDKSLDKHPNNPTSGCTFPKSNENACKFDDELDISKYVLGTCPNNIHGAGEEGDKSETKKAADVQVWTNPTLKSSTKGKVPNLNEVGTMTESHHFIKESDLEIESLVETFSYDNEDKQSMSDDGHFSGTTPKWCQNDTNRKITVQDCMYPNLKSPTEGKIPTRSKAGKMAESAHFIIESDLEIESLEETVSCDSEDKQLLV” is “failed”.

Values taken from a protein production outcome set (Wang et al. 2014).
